The values that follow come from patent US20110223176A1 (AbbVie / Abbott, published 2011).

Read-outs that look alike come from different tables or passages of the source.

Assay [1] addresses T1, cynomolgus monkey BSG2 on the cell surface (cynomolgus monkey).
T1 construct: whole, on cells; also called BAF3-cyno BSG2; Cyno BSG2
Briefly: cell-based ECL (MSD) binding on whole cells expressing cynomolgus BSG2. On the procedure:
(§1) Cells were plated at 25,000 cells/well in 25 μl PBS using 96 well MSD high binding plates (MSD, catalogue no. L11XB-3), and incubated at 37° C. for 1 hour. 25 μl/well of blocking solution (30% serum in PBS) was added to the plates for 30 minutes at room temperature with mild agitation. Plates were then incubated with 25 μl/well of BSG2 antibodies (10 μg/ml) diluted in assay buffer (10% serum in PBS) for 1 hour at room temperature with mild agitation, and then washed 3× with PBS. Goat anti-mouse or anti-human IgG sulfotag was added at 1 μg/ml for 1 hour with mild agitation, and plates were washed 3× with PBS. After the final wash, plates were incubated with 2×MSD surfactant-free read buffer (catalogue no. R92TD-2) and the signal was detected on a MSD SECTOR Imager 6000. Data were analyzed using Graphpad Prism software and EC₅₀ values were reported.
(§2) BSG2 antibody binding activities against whole cells expressing human or cynomolgus monkey BSG2 were assessed by ECL using MSD technology (described in Example 1.3) and the receptor binding assay (described in Example 1.4) and are shown in Table 11.

The target in assay [2] is T2, human BSG2 (basigin isoform 2) on the cell surface (human, UniProt P35613 140-385).
T2 construct: Presented on stably transfected BAF3 cells or endogenously on human tumor cell lines (HepG2, MiaPaCa-2, DoHH-2); also called hBSG2; CD147
T2 sequence: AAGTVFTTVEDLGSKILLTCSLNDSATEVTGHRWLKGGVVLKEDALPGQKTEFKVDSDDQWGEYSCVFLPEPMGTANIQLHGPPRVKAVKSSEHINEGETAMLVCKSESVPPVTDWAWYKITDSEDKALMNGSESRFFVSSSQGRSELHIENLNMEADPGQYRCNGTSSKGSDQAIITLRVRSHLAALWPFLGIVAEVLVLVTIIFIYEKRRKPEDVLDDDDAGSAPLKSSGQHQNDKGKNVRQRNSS
Briefly: receptor binding assay, Eu-labeled antibody on cells expressing human BSG2. On the procedure:
(§3) Cell lines expressing BSG2 were harvested and washed once in assay buffer (PBS, 0.1% BSA, 0.02% Na Azide, 10 mM EDTA) and resuspended to 5×10⁶ cells per mL. Serial 1:2 dilutions of ⁺³Eu-labeled anti-BSG2 antibody stock in assay buffer were made for final concentrations ranging from 1.6×10⁻⁸-7.7×10⁻¹² M, and a 4 mg/mL solution of unlabeled anti-BSG2 antibody was also prepared. To 96 well round bottom plates, 25 μl of ⁺³Eu-labeled antibody dilutions were added to 25 μl buffer (total counts), or 25 μl of unlabeled antibody were added to 25 μl buffer (background counts). 50 μl of cells at 2.5×10⁵ cells per well were then added to all samples, mixed gently, and incubated on ice for 1 hour. Cell bound antibody was then separated from unbound antibody by transferring 20 μL of the reaction mixture to Acrowell 96 well filter plates (Pall PN 5020), centrifuged for 5 min (2200 rpm), washed 3× with 150 μL cold assay buffer, and centrifuged for 5 min. Signal was determined by incubating samples with 150 μL/well of enhancement buffer and read using Envision. The specific counts were determined by subtracting the background counts (cells+labeled antibody+excess cold antibody) from the corresponding total counts (cells+labeled antibody) for each antibody concentration. The labeled antibody concentration versus total counts was analyzed using Graphpad Prism 4 to calculate Kd and Bmax values.

Assay [3] concerns the target T2, human BSG2 (basigin isoform 2) on the …. Briefly: cell-based or functional assay.
The target is the same in assay [4]. Briefly: cell-based ECL (MSD) binding on cells expressing human BSG2. On the procedure: as §1
Select humanized variants were also tested for their functionality using ADCC and cell viability assays (described in Examples 1.6 and 1.7).

Assay [5] has the same target. Briefly: cell-based ECL (MSD) binding on whole cells expressing human BSG2.
Assay [6] deals with T1, cynomolgus monkey BSG2 on the cell …. Briefly: flow cytometry (FACS) on BAF3 cells expressing cynomolgus BSG2. As to the method: (§4) Stable cell lines overexpressing cell-surface BSG2 or human tumor cell lines were harvested from tissue culture flasks, washed three times and resuspended in phosphate buffered saline (PBS) containing 1% bovine serum albumin and 1 mM CaCl₂ (FACS buffer). 5×10⁵ cells were incubated with antibodies at various concentrations in FACS buffer for 60 minutes on ice. Cells were washed twice and the bound murine monoclonal antibody was detected with a goat Fab′2 anti-mouse IgM+IgG+IgA (H+L) R-phycoerythrin-conjugated antibody (Southern Biotechnology Associates, Inc., Birmingham, Ala., Catalog No. 1012-08) diluted 1:500. Following incubation on ice (4° C., 60 minutes), cells were washed three times and resuspended in FACS buffer. Fluorescence was measured using a Becton Dickinson FACSCalibur-HTS (Becton Dickinson, San Jose, Calif., US). Data were analyzed using Graphpad Prism software and EC₅₀ values were reported as the concentration of antibody to achieve 50% of maximal BSG2 antibodies binding to BSG2 expressing cells.

The target of assay [7] is T2, human BSG2 (basigin isoform 2) on the …. The assay is described as follows: receptor binding assay, Eu-labeled antibody on cells expressing human BSG2. On the procedure: as §3, §2
The source holds these as a separate data set.

Assay [8] shares this target. The assay is described as follows: flow cytometry (FACS) on BAF3 cells expressing human BSG2. As to the method:
as §4
A general note: Flow cytometry measures light scatter and fluorescence of single cells or particles in a stream.

B1: mouse anti-human BSG2 monoclonal antibody ML64-6A11-3A3 (antibody, mouse IgG2a, V domains shown)
VH: EVKLEESGGGLVQPGGSMKLSCVASGFTFSNFWMDWVRQSPEKGLEWIAGIRLKSYNYATHYAESVKGRFTISRDDSKSSVYLQMNNLRAEDTGIYYCTDWDGAYWGQGTLVTVSA
VL: DIVMTQSHKFMSTSVGDRVSITCKASQDVSTDVAWYQQKPGQSPKLLIYSASYRYTGVPDRFTGSGSGTDFTFTISSVQAEDLAVYYCQQHYSTPFTFGSGTKLEIK
notes: Hybridoma antibody, mouse IgG2a/kappa; also called 6A11-3A3 parental mouse antibody; Ab 3A3
As usually defined, the EC50 is the concentration giving half of the maximal effect. As a reminder, the Kd is the constant that tells how readily two partners part at equilibrium. As to B1, the EC50 is 7.6 nM in assay [1]; 0.6 nM in assay [4]; 0.6 nM in assay [5]; 0.35 nM in assay [6]; 0.41 nM in assay [8]. For the same molecule, the equilibrium dissociation constant (Kd) in assay [2] and in assay [7] was 2 nM each time. Also, in assay [3], the “Mitochondrial membrane potential, fold decrease against Neg control IgG2a, MiaPaCa cells” value was found to be 2.5 fold decrease. Besides, the “ph-Akt, fold decrease against Neg control IgG2a, MiaPaCa cells” value in assay [3] came to 2 fold decrease.
